Laboratory results taken from patent US20210054365A1.
Where two headings read alike, the source gives them in different places.

T1: BclB (UniProt Q9HD36)
T1 sequence (looked up): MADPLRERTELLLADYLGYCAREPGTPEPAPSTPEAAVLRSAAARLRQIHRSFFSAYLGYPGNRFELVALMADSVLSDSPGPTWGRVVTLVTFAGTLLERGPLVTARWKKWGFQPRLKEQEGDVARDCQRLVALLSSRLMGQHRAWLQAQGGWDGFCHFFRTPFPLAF

B1: XINDI-XCDP07 (designed binder, from a related filing)
chain: ADPKKVLDKAKDRAENVVRKLKKELEELYKEARKLDLTQEMRDRIRLAAIAARIAAFGDIFHAIMEALEEARKLKKAGLVNSQQLDELKRRLEELDEEAAQRAEKLGKEFELKLEY
B2: BINDI-BCDP01 (designed binder, from a related filing)
chain: ADPKKVLDKAKDQAENRVRELKQELERLYKEARKLDLTQEMRRKLEWRYIAAMLKAIGDILNAIAQAENEADKLKKAGLVNSQQLDELRRRLEELAKEAARKAHDYGREFQLKLEY

Tests used:
[1] = biological target: Sag1 (Saccharomyces cerevisiae) (UniProt P20840); experiment: cell-based or functional assay
[2] = biological target: Sag1 (Saccharomyces cerevisiae) (UniProt P20840); experiment: cell-based or functional assay; remark: listed apart in the source
Mcl1 = Mcl1 (UniProt Q07820); experiment: affinity as tabulated ('known affinities'); method not stated
Bfl1 = Bfl1 (UniProt Q16548); experiment: as above
BclW = BclW (UniProt Q92843); experiment: as above
Bcl2 = Bcl2 (UniProt P10415); experiment: as above
BclXL = BclXL (UniProt Q07817); experiment: as above
BclB = biological target: T1, BclB; experiment: as above

Sequence of BclW (Q92843 1-182 limits assumed): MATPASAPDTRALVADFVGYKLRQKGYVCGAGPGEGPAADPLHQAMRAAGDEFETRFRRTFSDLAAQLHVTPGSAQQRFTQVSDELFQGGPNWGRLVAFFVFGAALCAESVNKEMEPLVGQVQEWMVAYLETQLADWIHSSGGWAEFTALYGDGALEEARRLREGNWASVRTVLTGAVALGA
Sequence of Mcl1 (Q07820 whole entry): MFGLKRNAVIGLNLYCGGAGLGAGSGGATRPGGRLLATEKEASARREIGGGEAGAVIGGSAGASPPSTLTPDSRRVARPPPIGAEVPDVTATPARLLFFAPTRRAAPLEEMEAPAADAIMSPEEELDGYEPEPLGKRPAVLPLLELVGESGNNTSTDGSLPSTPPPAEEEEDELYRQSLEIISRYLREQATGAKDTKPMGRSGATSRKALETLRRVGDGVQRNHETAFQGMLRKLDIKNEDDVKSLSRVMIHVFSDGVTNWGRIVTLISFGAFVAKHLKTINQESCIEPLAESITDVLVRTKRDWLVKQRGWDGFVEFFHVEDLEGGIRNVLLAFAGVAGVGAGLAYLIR
Sequence of Bcl2 (P10415 1-207 limits assumed): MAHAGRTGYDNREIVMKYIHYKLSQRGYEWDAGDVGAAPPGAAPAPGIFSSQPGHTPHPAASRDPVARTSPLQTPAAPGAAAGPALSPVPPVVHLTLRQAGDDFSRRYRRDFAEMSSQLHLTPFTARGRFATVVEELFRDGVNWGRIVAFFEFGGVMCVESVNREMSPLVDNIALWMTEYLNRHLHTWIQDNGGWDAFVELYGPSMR
Sequence of BclXL (Q07817 1-209 limits assumed): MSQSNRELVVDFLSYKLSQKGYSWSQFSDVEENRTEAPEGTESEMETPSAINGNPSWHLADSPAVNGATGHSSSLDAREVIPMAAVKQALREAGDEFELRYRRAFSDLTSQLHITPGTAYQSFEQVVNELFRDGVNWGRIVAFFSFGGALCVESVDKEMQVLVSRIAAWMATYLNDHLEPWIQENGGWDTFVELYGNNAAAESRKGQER
Sequence of Sag1 (Saccharomyces cerevisiae) (P20840 20-627): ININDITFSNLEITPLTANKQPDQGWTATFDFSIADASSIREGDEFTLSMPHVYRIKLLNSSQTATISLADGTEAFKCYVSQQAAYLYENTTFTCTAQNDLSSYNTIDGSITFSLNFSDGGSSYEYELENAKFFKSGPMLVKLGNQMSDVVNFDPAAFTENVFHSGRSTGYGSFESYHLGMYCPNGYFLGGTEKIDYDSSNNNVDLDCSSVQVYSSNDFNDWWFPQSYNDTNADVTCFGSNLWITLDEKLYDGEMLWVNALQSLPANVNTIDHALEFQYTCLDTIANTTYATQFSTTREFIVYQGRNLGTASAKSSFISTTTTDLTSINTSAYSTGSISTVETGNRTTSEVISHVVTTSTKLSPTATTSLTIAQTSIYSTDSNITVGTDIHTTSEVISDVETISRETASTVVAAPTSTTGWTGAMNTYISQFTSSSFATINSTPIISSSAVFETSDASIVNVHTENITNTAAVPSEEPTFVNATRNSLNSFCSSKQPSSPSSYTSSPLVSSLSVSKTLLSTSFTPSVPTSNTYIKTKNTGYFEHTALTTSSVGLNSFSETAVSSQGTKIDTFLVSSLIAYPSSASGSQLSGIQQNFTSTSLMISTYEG
Sequence of Bfl1 (Q16548 1-153 limits assumed): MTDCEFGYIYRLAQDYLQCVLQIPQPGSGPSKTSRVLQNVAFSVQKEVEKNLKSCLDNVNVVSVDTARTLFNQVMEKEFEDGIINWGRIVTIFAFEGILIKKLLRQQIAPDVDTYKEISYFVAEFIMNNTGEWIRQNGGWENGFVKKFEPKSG

| Molecule | mating efficiency [1] [%] | mating efficiency [2] [%] | Kd (Mcl1) [nM] | Kd (Bfl1) [nM] | Kd (BclW) [nM] | Kd (Bcl2) [nM] | Kd (BclXL) [nM] | Kd (BclB) [nM] |
| --- | --- | --- | --- | --- | --- | --- | --- | --- |
| Aga2 (from UniProt P32781 19-87) | > 50 | 57.1 | – | – | – | – | – | – |
| B1 | – | – | 17.4 | 7050 | 14.9 | 3.81 | 0.59 | 107 |
| B2 | – | – | 0.46 | 518 | 2010 | 17.3 | 20.2 | 8.33 |
